This note sets out measurements from patent EP4806905A1, “PEPTIDE, PEPTIDE COMPLEX, PHARMACEUTICAL COMPOSITION, COMPOSITION FOR CELL CULTURE, AND COMPOSITION FOR MEDICAL USE, DIAGNOSTIC USE, OR RESEARCH USE” (PeptiDream Inc., priority 2023, dated 2025).

Numbered stars: 1 amine (or outer) side, 2 acyl side, 3 side chain; on linkers, the order of the positions; unused ones are H or OH. Square brackets hold non-standard residues; d marks the D form. Ends that are not written are not given here. X1 = (S)‑3‑(2-carboxy-2-(methylamino)ethyl)benzoic acid, CN([C@@H](Cc1cccc(C(=O)[*:3])c1)C(=O)[*:2])[*:1]; Trp(7-aza) = N[C@@H](Cc1c[nH]c2ncccc12)C(=O)O; Ala(4-THP) = N[C@@H](CC1CCOCC1)C(=O)O; NMe4Pal = CN[C@@H](Cc1ccncc1)C(=O)O; NMeF = CN[C@@H](Cc1ccccc1)C(=O)O; Tic = O=C(O)[C@@H]1Cc2ccccc2CN1; Cit = NC(=O)NCCC[C@H](N)C(=O)O; NMeV = CN[C@H](C(=O)O)C(C)C

The test system of experiment [1] is TCF/LEF Reporter-HEK 293 cells. Kind of experiment: Evaluation of Wnt signal activation capability, TCF/LEF reporter assay. It is filed as cell-based. Conditions: dimer structure numbers 1 to 43; classes 2-A to 2-E; tested at 0.1/1/10/100/1,000 nM depending on the dimer. The protocol:
In order to evaluate the Wnt signal activation capability of each of the synthesized peptide complexes (dime structure numbers 1 to 67), transcriptional activity was evaluated using a TCF/LEF reporter.
TCF/LEF Reporter-HEK 293 cells (BPS Bioscience) were cultured in EMEM (Fuji FILM) containing 10% FBS (Thermo Fisher Scientific), 50 µg/mL Gentamicin (Nacalai Tesque), and 400 µg/mL Geneticin (Thermo Fisher Scientific).
The cells were detached using TrypLE (Thermo Fisher Scientific) and then suspended in EMEM containing 10% FBS, 50 µg/mL Gentamicin, and 10 mM LiCl (Sigma).
The cells were seeded into a white 96-well plate (Thermo Fisher Scientific) for cell adhesion and luminescence detection at a rate of 35,000 cells per well, and were then cultured overnight.
Subsequently, Recombinant Human Wnt-3a Protein (R&D systems) or a peptide complex was added in the presence of 1 nM Recombinant Human R-spondin 1 (R&D systems), and stimulation was conducted for 5 hours and 30 minutes in a CO2 incubator at 37°C.
The ONE-Glo Luciferase Assay System (Peomega) was added and shaken for 4 minutes, and the resulting luminescent signals were detected using a SpectraMax Paradigm multimode microplate reader (Molecular Devices).
The thus obtained signals were analyzed using a GraphPad Prism, and the percentage activity was calculated with the maximum value of the signal value induced by Wnt3a deemed to be 100% and the signal value with no stimulus deemed to be 0%. Evaluations were conducted with the Wnt concentration within a range from […] to determine the 100% value.
For each dimer structure number, tests were conducted using the peptide complex addition concentrations described below. • a) For dimer structure number 1, 1 nM, 10 nM, 100 nM, and 1,000 nM • b) For dimer structure numbers 2 to 4, 1 nM, 10 nM, and 100 nM • c) For dimer structure numbers 5 to 14, 0.1 nM, 1 nM, 10 nM, and 100 nM • d) For dimer structure numbers 15 to 43, 0.1 nM, 1 nM, and 10 nM • e) For dimer strength numbers 44 to 56, six points starting at 30 nM and then reducing by a common ratio of 1/4 (0.03 nM, 0.12 nM, 0.47 nM, 1.9 nM, 7.5 nM and 30 nM) • f) For dimer strength numbers 57 to 67, six points starting at 30 nM and then reducing by a common ratio of 1/5 (0.0096, 0.048, 0.24, 1.2, 6.0, and 30 nM)
(In general: In a reporter assay the amount or activity of a reporter protein is the signal.)

For a further experiment, the target named is T1, Frizzled-2 (FZD2) (Mus musculus, UniProt Q9JIP6).
T1 construct: purchased R&D systems 1307-FZ
Put plainly: Evaluation of binding activity to Frizzled using ELISA (Frizzled-2). The note with it: peptide complex (linker structure number 9 added to the peptide) diluted to 10 nM; absorbance at 450 nm minus wells with no added peptide complex. The protocol: (§1) In order to evaluate the binding activity of the synthesized peptide complexes (peptide complexes having the linker structure number 9 added to peptide sequence numbers 1 to 78) to Frizzled, a binding activity evaluation using the ELISA method was conducted using the steps described below.
(§2) Biotin-labeled polyclonal anti-human IgG (eBioscience; 13-4998) was added to a streptavidin-coated 96-well plate (Thermo; 436014) in an amount of 200 µg per well, and left to stand for 30 minutes.
(§3) Following washing three times with PBS-T, 3 pmol of Fc-tagged Frizzled-2 (R&D systems; 1307-FZ), Frizzled-7 (R&D systems; 6178-FZ), or Frizzled-8 (R&D systems; 6129-FZ) was added per well and left to stand for 30 minutes to immobilize each Frizzled on the plate.
(§4) Following washing three times with PBS-T, the peptide complex diluted to 10 nM was added to Frizzled-2 and Frizzled-7, the peptide complex diluted to 500 nM was added to Frizzled-8, and the plate was left to stand for one hour.
(§5) Following washing three times with PBS-T, Anti-HA-tag mAb-HRP-Direct T (MBL; M180-7) that had been diluted 5000-fold with PBS-T was added and left to stand for 30 minutes.
(§6) Following washing three times with PBS-T, SureBlue TMB I-Component Microwell Peroxidase Substrate (SeraCare; 5120-0077) was added and left to stand for 10 minutes, and the reaction was then halted by adding an equal volume of TMB Stop Solution (SeraCare; 5150-0021).
(§7) Using an Infinite M Nano* (TECAN), the absorbance was measured at 450 nm. The binding signal for each peptide complex was calculated by subtracting the absorbance in those wells containing no added peptide complex from the absorbance in those wells containing the added peptide.
Background: ELISA stands for enzyme-linked immunosorbent assay.

Another experiment has as its target T2, Frizzled-7 (FZD7) (Homo sapiens, UniProt O75084).
T2 construct: purchased R&D systems 6178-FZ
Put plainly: Evaluation of binding activity to Frizzled using ELISA (Frizzled-7). The note with it: peptide complex (linker structure number 9 added to the peptide) diluted to 10 nM; absorbance at 450 nm minus wells with no added peptide complex. The procedure: as §1, §2, §3, §4, §5, §6, §7

A further experiment concerns the target T3, Frizzled-8 (FZD8) (Homo sapiens, UniProt Q9H461).
T3 construct: purchased R&D systems 6129-FZ
T3 sequence (Q9H461 28-158 limits assumed): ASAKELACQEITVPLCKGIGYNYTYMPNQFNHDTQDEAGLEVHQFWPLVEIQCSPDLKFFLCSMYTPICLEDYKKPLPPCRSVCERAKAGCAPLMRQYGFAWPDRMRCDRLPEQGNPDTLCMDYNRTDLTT
Kind of experiment: Evaluation of binding activity to Frizzled using ELISA (Frizzled-8). The note with it: peptide complex (linker structure number 9 added to the peptide) diluted to 500 nM; absorbance at 450 nm minus wells with no added peptide complex. The protocol: as §1, §2, §3, §4, §5, §6, §7

Consider “Peptide sequence number 99: peptide of formula B3, amino acid residues shown in Table 2 (FRWDVR[NMeF]SN[Trp(7-aza)]N[Tic]NCG)”, for which the “TCF/LEF Reporter Assay Result” value in experiment [1] is reported as 2-C (peptide complexes that exhibited 50% or more activity when 10 nM of the peptide complex was added). For the same substance, the “ELISA signal Frizzled-2 (FZD2)” value with Frizzled-2 (FZD2) amounted to 0.0. Moreover, in the experiment with Frizzled-7 (FZD7), the “ELISA signal Frizzled-7 (FZD7)” value was 0.0. The “ELISA signal Frizzled-8 (FZD8)” value with Frizzled-8 (FZD8) stood at 0.4.
With “df-S-D-I-R-Y-MeF-V-T-MeF-I-MeV-ds-C-G ([dF]SDIRY[NMeF]VT[NMeF]I[NMeV][dS]CG) [Peptide sequence number 66]”, the “TCF/LEF Reporter Assay Result” value in experiment [1] was 2-C (peptide complexes that exhibited 50% or more activity when 10 nM of the peptide complex was added). Also, in the experiment with Frizzled-2 (FZD2), the “ELISA signal Frizzled-2 (FZD2)” value was 1.5. The “ELISA signal Frizzled-7 (FZD7)” value in the experiment with Frizzled-7 (FZD7) is 1.4. Also, the “ELISA signal Frizzled-8 (FZD8)” value in the experiment with Frizzled-8 (FZD8) is recorded as 0.7.
In the same order, the values of “Dimer structure number 46: dimer of peptide SEQ ID NO: 35 and peptide SEQ ID NO: 79 via linker structure number 8 (chain 1 [dF]S[Ala(4-THP)]IRY[NMeF]VT[NMeF]I[NMeV]GCG; chain 2 FRWDVR[NMeF]SNWN[Tic]NCG; cysteine pairing not given here; also: dimer via linker structure number 8, attachment not given here)” are 2-C (peptide complexes that exhibited 50% or more activity when 10 nM of the peptide complex was added), 0.3, 0.3 and 0.0.
In the same order, the values of “Dimer structure number 66: dimer of peptide SEQ ID NO: 76 and peptide SEQ ID NO: 163 via linker structure number 3 (chain 1 [dF]S[Cit]IRY[NMeF]VT[NMe4Pal]I[NMeV][dS]CG; chain 2 FR[Trp(7-aza)]DVR[X1]SE[Trp(7-aza)]N[Tic]DCG; not fully specified; cysteine pairing not given here; also: dimer via linker structure number 3, attachment not given here)” are 2-B (peptide complexes that exhibited 50% or more activity when 1 nM of the peptide complex was added), 1.7, 1.7 and 1.5.
